Experimental findings from paper PMC6258877 are described below.

In this assay the target is short cTag (s-cTag) on a CD8α stalk (human). The experiment in a line: flow cytometry on cells; 293T cells transiently transfected with the mimic constructs (co-expressed EGFP), stained with APC-conjugated streptavidin 48 hr later; MedFI of EGFP-positive cells; staining of cTag8 293T cells reversed by 1 mM biotin, 1 hr, room temperature. A general note: In flow cytometry, cells or beads pass a laser one at a time.

Sequence of streptavidin allophycocyanin (APC) (P22629 25-183): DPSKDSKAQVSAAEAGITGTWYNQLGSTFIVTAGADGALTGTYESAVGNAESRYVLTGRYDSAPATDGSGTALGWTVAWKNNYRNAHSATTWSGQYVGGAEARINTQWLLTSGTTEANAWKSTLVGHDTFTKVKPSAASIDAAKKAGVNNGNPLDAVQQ

Consider “streptavidin allophycocyanin (APC) (from UniProt P22629 25-183) (natural protein)”, for which the median fluorescence intensity (MedFI) is 10000.
